1 molecule from publication PMC4048323 (Nature medicine, 2014) can be followed below.

This experiment concerns the target T1, mouse Ebi3 subunit of recombinant IL-35, V5-His-tagged (mouse, UniProt O35228 19-228).
T1 sequence: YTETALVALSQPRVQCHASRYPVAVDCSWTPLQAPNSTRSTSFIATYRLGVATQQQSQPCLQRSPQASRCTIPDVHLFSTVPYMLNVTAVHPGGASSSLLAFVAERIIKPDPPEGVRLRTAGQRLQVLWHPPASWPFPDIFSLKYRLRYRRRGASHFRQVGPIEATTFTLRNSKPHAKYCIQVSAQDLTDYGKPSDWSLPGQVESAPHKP
As to the kind of experiment: co-IP.

B1: mouse IL-12p35 (p35) subunit of recombinant IL-35, Flag-tagged (natural protein)
chain: RVIPVSGPARCLSQSRNLLKTTDDMVKTAREKLKHYSCTAEDIDHEDITRDQTSTLKTCLPLELHKNESCLATRETSSTTRGSCLPPQKTSLMMTLCLGSIYEDLKMYQTEFQAINAALQNHNHQQIILDKGMLVAIDELMQSLNHNGETLRQKPPVGEADPYRVKMKLCILLHAFSTRVVTINRVMGYLSSA
As to B1, the binding result is reported as “binds”.
